Experimental data as given in patent US20240239872A1 (SHANDONG AGRICULTURAL UNIVERSITY, published 2024).

B1: monoclonal antibody M3 (antibody, V domains shown)
VH: EVILVESGGGLVKPGGSLRLSCAASGFTFSSHPLSWVRQSPDKRLEWVASISSGGRYTYYPDSVKGRLTISRDNAKNILYLHMNSLRSEDTAMYYCARRGSTATAWFAYWGQGTLVTVSA
VL: DIALTQSPASLAVSLGQRATISCKASQSVDYDGDSYMSWYQQKPGQPPKLLIYGASNLESGIPARFSGSGSGTDFTLNIHPVEEEDAATYYCQQSNEDLPTFGGGTKLEIK
notes: also called MAb M3
B2: monoclonal antibody C1 (antibody, V domains shown)
VH: EVQLQQSGAELVRPGALVKLSCKASGFNIKDYYMHWVKQRPEEGLEWIGWIDPENGNTIYDPKFQGKASITADTSSNTVRLQLSSLTSEDTAVYYCARERGAYWGQGTLVTVSA
VL: QIVLTQSPAIMSASPGEKVTMTCSASSSVSYMYWFQQKPGSSPRLLIYDTSNLASGVPVRFSGSGSGTSYSLTISRMEAEDAATFYCQQWSSYPLTFGAGTKLELK
notes: also called MAb C1
B3: monoclonal antibody N1 (antibody, V domains shown)
VH: EVQLVESGGGLVQPGGSLKLSCAASGFTFSSYGMSWVRQSPDKRLEWVATINNNGGSTYYPDSVKGRFTISRDNAKNTLYLQMSSLKSEDTAVYYCARDAAFDCWGQGTTLTVSS
VL: DIVMSQSPSSLAVSAGEKVTMSCKSSQSLLNSRTRKNYLAWYQQKPGQSPKLLIYWASTRESGVPDRFTGSGSGTDFTLTISSVQAEDLAVYYCKQSYNLFTFGSGTKLEIK
notes: also called MAb N1
B4: monoclonal antibody M1 (antibody, V domains shown)
VH: QVQLQQSGPELVRPGASVKMSCKTSGYPFSTYWMHWVKQRPGQGLEWIGMIKPSNSETSLNQKFKDKATLNVDKSSNTAYMQLNSLTSEDSGVYYCARAGDSWGQGTTLTVSS
VL: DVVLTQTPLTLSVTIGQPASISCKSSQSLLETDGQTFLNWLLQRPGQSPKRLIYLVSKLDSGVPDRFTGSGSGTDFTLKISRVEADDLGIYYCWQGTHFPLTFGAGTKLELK
notes: also called MAb M1
B5: monoclonal antibody M2 (antibody, V domains shown)
VH: EVQLVESGGGLVQPKGSLKLSCAASDFTFNTHSMNWVRQAPGKVLEWIARIRSQSNNYATYYADSVKDRFTISRDDSQNMFYLQMNNLKTEDTAMYYCAGDYYGPFAYWGQGTLVAVSA
VL: DVLMTQTPLSLPVSLGDQASISCRSGQSLVHSNGNTYLHWYLQKPGQSPKLLIYKVSNRFSGVPDRFSGSGSGTDFTLKISRVEAEDLGVYFCSQSTHVPWTFGGGTKLEIK
notes: also called MAb M2

Experiments:
[1] = target: T1, PVY in juice of infected plants (coat protein on virus) (Potato virus Y); experiment: dot-ELISA on diluted juice of PVY-infected plants
[2] = target: T1, PVY in juice of infected plants (coat …); experiment: indirect ELISA (antigen not stated)

Row | Binder | dilution of PVY-infected juice still detected [1] | Titer [2] [reciprocal dilution]
1 | B1 | 5120 times (fold dilution) | 243000
2 | B2 | 5120 times (fold dilution) | 243000
3 | B3 | 10200 times (fold dilution) | 243000
4 | B4 | 5120 times (fold dilution) | 243000
5 | B5 | 640 times (fold dilution) | 243000
